Source: ChEMBL document CHEMBL4680222, “Sensitive fluorogenic substrates for sirtuin deacylase inhibitor discovery” (Eur J Med Chem, 2020)

B1: NAD-dependent protein deacetylase sirtuin-3, mitochondrial (Homo sapiens), Q9NTG7 (protein)
chain: MAFWGWRAAAALRLWGRVVERVEAGGGVGPFQACGCRLVLGGRDDVSAGLRGSHGARGEPLDPARPLQRPPRPEVPRAFRRQPRAAAPSFFFSSIKGGRRSISFSVGASSVVGSGGSSDKGKLSLQDVAELIRARACQRVVVMVGAGISTPSGIPDFRSPGSGLYSNLQQYDLPYPEAIFELPFFFHNPKPFFTLAKELYPGNYKPNVTHYFLRLLHDKGLLLRLYTQNIDGLERVSGIPASKLVEAHGTFASATCTVCQRPFPGEDIRADVMADRVPRCPVCTGVVKPDIVFFGEPLPQRFLLHVVDFPMADLLLILGTSLEVEPFASLTEAVRSSVPRLLINRDLVGPLAWHPRSRDVAQLGDVVHGVESLVELLGWTEEMRDLVQRETGKLDGPDK
B2: NAD-dependent protein deacetylase sirtuin-1 (Homo sapiens), Q96EB6 (protein)
chain: MADEAALALQPGGSPSAAGADREAASSPAGEPLRKRPRRDGPGLERSPGEPGGAAPEREVPAAARGCPGAAAAALWREAEAEAAAAGGEQEAQATAAAGEGDNGPGLQGPSREPPLADNLYDEDDDDEGEEEEEAAAAAIGYRDNLLFGDEIITNGFHSCESDEEDRASHASSSDWTPRPRIGPYTFVQQHLMIGTDPRTILKDLLPETIPPPELDDMTLWQIVINILSEPPKRKKRKDINTIEDAVKLLQECKKIIVLTGAGVSVSCGIPDFRSRDGIYARLAVDFPDLPDPQAMFDIEYFRKDPRPFFKFAKEIYPGQFQPSLCHKFIALSDKEGKLLRNYTQNIDTLEQVAGIQRIIQCHGSFATASCLICKYKVDCEAVRGDIFNQVVPRCPRCPADEPLAIMKPEIVFFGENLPEQFHRAMKYDKDEVDLLIVIGSSLKVRPVALIPSSIPHEVPQILINREPLPHLHFDVELLGDCDVIINELCHRLGGEYAKLCCNPVKLSEITEKPPRTQKELAYLSELPPTPLHVSEDSSSPERTSPPDSSVIVTLLDQAAKSNDDLDVSESKGCMEEKPQEVQTSRNVESIAEQMENPDLKNVGSSTGEKNERTSVAGTVRKCWPNRVAKEQISRRLDGNQYLFLPPNRYIFHGAEVYSDSEDDVLSSSSCGSNSDSGTCQSPSLEEPMEDESEIEEFYNGLEDEPDVPERAGGAGFGTDGDDQEAINEAISVKQEVTDMNYPSNKS

Key:
[1] = compound: CC(=O)NCCCC[C@H](NC(=O)[C@H](CC(C)C)NC(=O)[C@H](CCCCN)NC(=O)[C@H](Cc1ccc(O)cc1)NC(C)=O)C(=O)Nc1ccc2c(C)cc(=O)oc2c1; assay: (§1) Substrate activity at human N-terminal His-tagged SIRT3 (122 to 391 residues) expressed in Escherichia coli assessed as Kcat measured after 1 hr in presence of NAD+ and trypsin by Michaelis-Menten kinetic model based fluorescence assay
[2] = compound: CC[C@H](C)[C@H](NC(=O)[C@H](CC(C)C)NC(=O)[C@H](CCCNC(=N)N)NC(C)=O)C(=O)N[C@@H](CCCCNC(C)=O)C(=O)Nc1ccc2c(C)cc(=O)oc2c1; assay: as §1
[3] = compound: CC(=O)NCCCC[C@H](NC(=O)[C@H](CC(C)C)NC(=O)[C@H](CCCCN)NC(=O)[C@H](Cc1ccc(O)cc1)NC(C)=O)C(=O)Nc1ccc2c(C)cc(=O)oc2c1; assay: (§2) Substrate activity at human N-terminal His-tagged SIRT3 (122 to 391 residues) expressed in Escherichia coli assessed as Km measured after 1 hr in presence of NAD+ and trypsin by Michaelis-Menten kinetic model based fluorescence assay
[4] = compound: CC[C@H](C)[C@H](NC(=O)[C@H](CC(C)C)NC(=O)[C@H](CCCNC(=N)N)NC(C)=O)C(=O)N[C@@H](CCCCNC(C)=O)C(=O)Nc1ccc2c(C)cc(=O)oc2c1; assay: as §2
[5] = compound: CC(=O)NCCCC[C@H](NC(=O)[C@H](CC(C)C)NC(=O)[C@H](CCCCN)NC(=O)[C@H](Cc1ccc(O)cc1)NC(C)=O)C(=O)Nc1ccc2c(C)cc(=O)oc2c1; assay: (§3) Substrate activity at human N-terminal His-tagged SIRT3 (122 to 391 residues) expressed in Escherichia coli assessed as Vmax measured after 1 hr in presence of NAD+ and trypsin by Michaelis-Menten kinetic model based fluorescence assay
[6] = compound: CC[C@H](C)[C@H](NC(=O)[C@H](CC(C)C)NC(=O)[C@H](CCCNC(=N)N)NC(C)=O)C(=O)N[C@@H](CCCCNC(C)=O)C(=O)Nc1ccc2c(C)cc(=O)oc2c1; assay: as §3
[7] = compound: CC(=O)NCCCC[C@H](NC(=O)[C@H](CC(C)C)NC(=O)[C@H](CCCCN)NC(=O)[C@H](Cc1ccc(O)cc1)NC(C)=O)C(=O)Nc1ccc2c(C)cc(=O)oc2c1; assay: (§4) Substrate activity at human N-terminal His-tagged SIRT3 (122 to 391 residues) expressed in Escherichia coli assessed as ratio of Kcat to Km measured after 1 hr in presence of NAD+ and trypsin by Michaelis-Menten kinetic model based fluorescence assay
[8] = compound: CC[C@H](C)[C@H](NC(=O)[C@H](CC(C)C)NC(=O)[C@H](CCCNC(=N)N)NC(C)=O)C(=O)N[C@@H](CCCCNC(C)=O)C(=O)Nc1ccc2c(C)cc(=O)oc2c1; assay: as §4
[9] = compound: CC(=O)NCCCC[C@H](NC(=O)[C@H](CC(C)C)NC(=O)[C@H](CCCCN)NC(=O)[C@H](Cc1ccc(O)cc1)NC(C)=O)C(=O)Nc1ccc2c(C)cc(=O)oc2c1; assay: (§5) Substrate activity at human N-terminal His-tagged SIRT1 (183 to 664 residues) expressed in Escherichia coli assessed as ratio of Kcat to Km measured after 1 hr in presence of NAD+ and trypsin by Michaelis-Menten kinetic model based fluorescence assay
[10] = compound: CC[C@H](C)[C@H](NC(=O)[C@H](CC(C)C)NC(=O)[C@H](CCCNC(=N)N)NC(C)=O)C(=O)N[C@@H](CCCCNC(C)=O)C(=O)Nc1ccc2c(C)cc(=O)oc2c1; assay: as §5
[11] = compound: CC(=O)NCCCC[C@H](NC(=O)[C@H](CC(C)C)NC(=O)[C@H](CCCCN)NC(=O)[C@H](Cc1ccc(O)cc1)NC(C)=O)C(=O)Nc1ccc2c(C)cc(=O)oc2c1; assay: (§6) Substrate activity at human N-terminal His-tagged SIRT1 (183 to 664 residues) expressed in Escherichia coli assessed as Kcat measured after 1 hr in presence of NAD+ and trypsin by Michaelis-Menten kinetic model based fluorescence assay
[12] = compound: CC[C@H](C)[C@H](NC(=O)[C@H](CC(C)C)NC(=O)[C@H](CCCNC(=N)N)NC(C)=O)C(=O)N[C@@H](CCCCNC(C)=O)C(=O)Nc1ccc2c(C)cc(=O)oc2c1; assay: as §6
[13] = compound: CC(=O)NCCCC[C@H](NC(=O)[C@H](CC(C)C)NC(=O)[C@H](CCCCN)NC(=O)[C@H](Cc1ccc(O)cc1)NC(C)=O)C(=O)Nc1ccc2c(C)cc(=O)oc2c1; assay: (§7) Substrate activity at human N-terminal His-tagged SIRT1 (183 to 664 residues) expressed in Escherichia coli assessed as Vmax measured after 1 hr in presence of NAD+ and trypsin by Michaelis-Menten kinetic model based fluorescence assay
[14] = compound: CC[C@H](C)[C@H](NC(=O)[C@H](CC(C)C)NC(=O)[C@H](CCCNC(=N)N)NC(C)=O)C(=O)N[C@@H](CCCCNC(C)=O)C(=O)Nc1ccc2c(C)cc(=O)oc2c1; assay: as §7
[15] = compound: CC(=O)NCCCC[C@H](NC(=O)[C@H](CC(C)C)NC(=O)[C@H](CCCCN)NC(=O)[C@H](Cc1ccc(O)cc1)NC(C)=O)C(=O)Nc1ccc2c(C)cc(=O)oc2c1; assay: (§8) Substrate activity at human N-terminal His-tagged SIRT1 (183 to 664 residues) expressed in Escherichia coli assessed as Km measured after 1 hr in presence of NAD+ and trypsin by Michaelis-Menten kinetic model based fluorescence assay
[16] = compound: CC[C@H](C)[C@H](NC(=O)[C@H](CC(C)C)NC(=O)[C@H](CCCNC(=N)N)NC(C)=O)C(=O)N[C@@H](CCCCNC(C)=O)C(=O)Nc1ccc2c(C)cc(=O)oc2c1; assay: as §8

| Protein | kcat [1] | kcat [2] | Km [3] | Km [4] | Vmax [5] | Vmax [6] | kcat/Km [7] | kcat/Km [8] | kcat/Km [9] | kcat/Km [10] | kcat [11] | kcat [12] | Vmax [13] | Vmax [14] | Km [15] | Km [16] |
| --- | --- | --- | --- | --- | --- | --- | --- | --- | --- | --- | --- | --- | --- | --- | --- | --- |
| B1 | 2.44 10^-3/s | 5.58 10^-3/s | 63.4 µM | 6.52 µM | 14.6 nM/min | 33.5 nM/min | 26.1 M⁻¹ s⁻¹ | 850 M⁻¹ s⁻¹ |  |  |  |  |  |  |  |  |
| B2 |  |  |  |  |  |  |  |  | 226 M⁻¹ s⁻¹ | 669 M⁻¹ s⁻¹ | 17.3 10^-3/s | 37.9 10^-3/s | 208 nM/min | 454 nM/min | 76.5 µM | 56.6 µM |
